This is an account of results in paper PMC2941470.

The assay has as its target endogenous DDX3X from HuH-7 cells (human (endogenous in HuH-7)) (UniProt O00571).
UniProt O00571, sequence (O00571 whole entry): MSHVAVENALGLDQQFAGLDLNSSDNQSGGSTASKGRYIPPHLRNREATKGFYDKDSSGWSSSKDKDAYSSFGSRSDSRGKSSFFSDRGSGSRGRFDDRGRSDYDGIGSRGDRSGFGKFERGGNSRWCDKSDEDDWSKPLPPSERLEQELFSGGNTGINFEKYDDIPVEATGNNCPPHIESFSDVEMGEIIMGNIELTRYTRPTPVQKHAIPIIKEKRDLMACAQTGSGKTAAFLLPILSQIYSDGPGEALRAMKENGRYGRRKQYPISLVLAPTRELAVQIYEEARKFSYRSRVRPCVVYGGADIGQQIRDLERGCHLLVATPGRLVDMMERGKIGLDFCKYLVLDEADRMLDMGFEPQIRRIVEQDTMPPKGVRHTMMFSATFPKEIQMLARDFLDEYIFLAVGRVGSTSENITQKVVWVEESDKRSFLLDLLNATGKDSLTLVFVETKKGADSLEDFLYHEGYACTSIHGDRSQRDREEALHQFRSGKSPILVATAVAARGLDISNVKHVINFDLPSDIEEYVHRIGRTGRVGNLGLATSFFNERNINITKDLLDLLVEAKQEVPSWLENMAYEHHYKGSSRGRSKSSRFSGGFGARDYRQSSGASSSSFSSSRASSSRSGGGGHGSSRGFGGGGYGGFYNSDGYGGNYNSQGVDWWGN

In the case of “GFP fusion to HCV core protein residues 16–36 (peptide)”, the level of HCV replicon NNeo/C-5B RNA in HuH-7 cells 48 h after transient transfection (Northern blot) stood at 50%.
